From patent publication US12491324B2, “Droplet device with inertial filtering” (PNEUMA RESPIRATORY, INC., priority 2016, dated 2025)
Where “and” joins values, the source holds several entries; their conditions need not be identical. Identical values can stand only once.

What was measured:
Type in all cases: physicochemical
[1] = Gel electrophoresis of active agent after droplet generation; conditions: 'will show'
From the text: Gel Electrophoresis: To determine the stability of active agent after droplet generation, the generated stream of droplets including the active agent is collected and the molecular weight of the active agent is verified using gel electrophoresis.

[2] = Enbrel stability after aerosol generation, size exclusion chromatography (SEC)
From the text: Size Exclusion Chromatography (SEC): Alternately, to determine the stability of active agent after droplet generation, the generated stream of droplets including the active agent may be collected and […] may be employed to monitor for any changes in large molecule aggregation and protein fragment content. Soluble protein aggregates and protein fragment content may be calculated by comparing respective peak area under the SEC-HPLC curve of dispensed protein solutions with controls (solutions remaining in the device reservoir). Drug solutions for testing include Enbrel, (ENBREL® single-use prefilled syringes in 25 mg (0.51 mL of a 50 mg/mL solution of etanercept), and insulin, (Humalog, 200 units/ml, 3 ml […] is performed with a YarraTM 3 μm SEC-2000 LC column 300×7.8 mm, SecurityGuard cartridge kit and SecurityGuard cartridges GFC-2000, 4×3 mm ID. Fifty microliters of Enbrel from the syringe (ENBREL® single-use prefilled syringes in 25 mg/0.51 mL of a 50 mg/mL solution of etanercept) is diluted (4:1) (4 parts, 200 mcl of the mobile phase buffer solution to 1 part, 50 mcl Enbrel from syringe). Fifty microliter of the diluted Enbrel is injected and separation was performed at a flow rate of 1.0 ml/min. The mobile phase buffer system included a PHOS. BUFF. SALINE. […] UV detection is performed at 280 nm. […] An ampule/cartridge is filled with either 0.20 ml of Enbrel® (50 mg/ml) diluted 4:1 (10 mg/ml) (4 parts (200 mcl) of PBS and 0.025% NaN3 and 1 part (50 mcl of Enbrel solution from the syringe). After 20 actuations and aerosolization, about 150 mcl of the aerosolized Enbrel solution is recovered and collected in the polypropylene tube located below the ejector mechanism. The control consists of the diluted Enbrel solution, 50 mcl of which is injected into the SEC column for analysis.

[3] = Anderson Cascade Impactor testing of droplet delivery device with Albuterol sulfate (Example B); conditions: Albuterol 0.5%, 28.3 lpm
From the text: FIGS. 21A-21E provide a summary of the test results.

[4] = Insulin stability after aerosol generation, size exclusion chromatography (SEC)
From the text: Size Exclusion Chromatography (SEC): Alternately, to determine the stability of active agent after droplet generation, the generated stream of droplets including the active agent may be collected and SEC-HPLIC may be employed to monitor for any changes in large molecule aggregation and protein fragment content. Soluble protein aggregates and protein fragment content may be calculated by comparing respective peak area under the SEC-HPLC curve of dispensed protein solutions with controls (solutions remaining in the device reservoir).
Drug solutions for testing include Enbrel, (ENBREL® single-use prefilled syringes in 25 mg (0.51 mL of a 50 mg/mL solution of etanercept), and insulin, (Humalog, 200 units/ml, 3 ml kwikpens)
Aerosol collection and SEC is performed in a similar fashion as for the Enbrel analysis and aerosol collection.
Fifty microliters of the collected aerosol spray is injected onto the SEC column for analysis, while 50 mcl of the Kwikpen insulin solution is injected onto the SEC column for control samples.

[5] = aerosolized samples S1, S2 (summary table)
[6] = control, Enbrel diluted 4:1 (10 mg/ml), SEC UV 280 nm

Substance: adalimumab
- change in the electrophoretic mobility, and hence the molecular weight, post-aerosol vs control [1]: negligible change

Substance: etanercept [Enbrel]
- Peak 4 [2, 5]: 0.357 and 0.352
- Peak 5 [2, 5]: 5.123 and 3.428
- Peak 4 Peak Area % [2, 6]: 0%
- Peak 5 Peak Area % [2, 6]: 0%
- dose leading to formation of molecular fragments ([2]; fragments with elution times of 13 and 25 minutes): 4.6%
- change in the electrophoretic mobility, and hence the molecular weight, post-aerosol vs control [1]: negligible change

Substance: Albuterol sulfate
- Cum. % < ([3]; FILTER stage, 10 actuations): 0.00%
- Cum. % > ([3]; FILTER stage, 10 actuations): 100.00%
- Coarse ([3]; summary of deposition): 22.7
- Fine ([3]; summary of deposition): 3.5
- Mouthpiece ([3]; summary of deposition): 12.2
- Respirable ([3]; summary of deposition): 69.3
- Throat ([3]; summary of deposition): 4.6

Substance: Insulin: insulin, Humalog, 200 units/ml, 3 ml kwikpens
- Peak 3 [4, 5]: 2.797 and 2.184
- Peak 3 Peak Area % ([4]; control, Insulin from Kwikpen 200 U/ml, SEC): 0%
- ejected dose forming a fragment ([4]; fragment eluting at ~25 minutes): 2.5%

Substance: bevacizumab
- change in the electrophoretic mobility, and hence the molecular weight, post-aerosol vs control [1]: negligible change
